Assay results as given in US20140155325A1 (Janssen / Centocor, published 2014).

Tests used:
[1] = biological target: T1, recombinant human extracellular domain of EGFR fused to an IgG1 Fc (human, UniProt P00533 25-645); experiment: SPR (ProteOn), EGFR-Fc captured by anti-human Fc
T1 construct: Bought from R&D Systems; captured on anti-human Fc IgG in the SPR assays; also called EGFR-Fc; recombinant EGFR extracellular domain; not shown: IgG1 Fc of the bought fusion protein (R&D Systems)
Experimental: Select EGFR-binding FN3 domains were screened to identify those with slow off-rates (koff) in binding to EGFR-Fc on a ProteOn XPR-36 instrument (Bio-Rad) to facilitate selection of high affinity binders. Goat anti-human Fc IgG (R&D systems), at a concentration of 5 μg/mL, was directly immobilized via amine coupling (at pH 5.0) on all 6 ligand channels in horizontal orientation on the chip with a flow rate of 30 μL/min in PBS containing 0.005% Tween-20. The immobilization densities averaged about 1500 Response Units (RU) with less than 5% variation among different channels. EGFR-Fc was captured on the anti-human Fc IgG surface to a density around 600 RU in vertical ligand orientation. All tested FN3 domains were normalized to a concentration of 1 μM and tested for their binding in horizontal orientation. All 6 analyte channels were used for the FN3 domains to maximize screening throughput. The dissociation phase was monitored for 10 minutes at a flow rate of 100 μL/min. The inter-spot binding signals were used as references to monitor non-specific binding between analytes and the immobilized IgG surface, and were subtracted from all binding responses. […]
Binding affinity of selected EGFR-binding FN3 domains to recombinant EGFR extracellular domain was further characterized by surface Plasmon resonance methods using a Proteon Instrument (BioRad). […]

[2] = biological target: T2, human EGFR (epidermal growth factor receptor) on cells (human, UniProt P00533 25-1210); experiment: A431 cell EGF competition (biotinylated EGF)
T2 construct: Endogenous EGFR of human tumor cell lines; also called HER-1; Erb-B1

[3] = biological target: T2, human EGFR (epidermal growth factor …); experiment: cell-based or functional assay
[4] = biological target: T2, human EGFR (epidermal growth factor …); experiment: A431 cell binding, anti-His-Alexa488

B1: P54AR4-47 (designed binder)
chain: LPAPKNLVVSEVTEDSLRLSWWDPFSFYDSFLIQYQESEKVGEAINLTVPGSERSYDLTGLKPGTEYTVSIYGVHNVYKDTNMRGLPLSAEFTT
- Kd [1]: 2.51 nM
- IC50 [2]: 7.1 nM
- NCI-H292 Growth IC50 [3]: 44 nM
- NCI-H322 Growth IC50 [3]: 39 nM
- Phospho-EGFR IC50 (EGF-stimulated, A431 cells) [3]: 295 nM
- EC50 [4]: 8.6 nM
